Reference: patent publication US8541670B2, “Compositions and methods for inhibiting tumor cell growth” (priority 2007, dated 2013)
Where no end group is shown, it is not given here. red fluorescent dye = not defined here

Legend:
JAK3 = biological target: T1, JAK3 (Homo sapiens, UniProt P52333); test: Cell-based kinase assay, phosphorylation of intracellular substrate (Tyr-1022/1023 JAK1)
T1 construct: endogenous in cells
T1 sequence (P52333 1-1124): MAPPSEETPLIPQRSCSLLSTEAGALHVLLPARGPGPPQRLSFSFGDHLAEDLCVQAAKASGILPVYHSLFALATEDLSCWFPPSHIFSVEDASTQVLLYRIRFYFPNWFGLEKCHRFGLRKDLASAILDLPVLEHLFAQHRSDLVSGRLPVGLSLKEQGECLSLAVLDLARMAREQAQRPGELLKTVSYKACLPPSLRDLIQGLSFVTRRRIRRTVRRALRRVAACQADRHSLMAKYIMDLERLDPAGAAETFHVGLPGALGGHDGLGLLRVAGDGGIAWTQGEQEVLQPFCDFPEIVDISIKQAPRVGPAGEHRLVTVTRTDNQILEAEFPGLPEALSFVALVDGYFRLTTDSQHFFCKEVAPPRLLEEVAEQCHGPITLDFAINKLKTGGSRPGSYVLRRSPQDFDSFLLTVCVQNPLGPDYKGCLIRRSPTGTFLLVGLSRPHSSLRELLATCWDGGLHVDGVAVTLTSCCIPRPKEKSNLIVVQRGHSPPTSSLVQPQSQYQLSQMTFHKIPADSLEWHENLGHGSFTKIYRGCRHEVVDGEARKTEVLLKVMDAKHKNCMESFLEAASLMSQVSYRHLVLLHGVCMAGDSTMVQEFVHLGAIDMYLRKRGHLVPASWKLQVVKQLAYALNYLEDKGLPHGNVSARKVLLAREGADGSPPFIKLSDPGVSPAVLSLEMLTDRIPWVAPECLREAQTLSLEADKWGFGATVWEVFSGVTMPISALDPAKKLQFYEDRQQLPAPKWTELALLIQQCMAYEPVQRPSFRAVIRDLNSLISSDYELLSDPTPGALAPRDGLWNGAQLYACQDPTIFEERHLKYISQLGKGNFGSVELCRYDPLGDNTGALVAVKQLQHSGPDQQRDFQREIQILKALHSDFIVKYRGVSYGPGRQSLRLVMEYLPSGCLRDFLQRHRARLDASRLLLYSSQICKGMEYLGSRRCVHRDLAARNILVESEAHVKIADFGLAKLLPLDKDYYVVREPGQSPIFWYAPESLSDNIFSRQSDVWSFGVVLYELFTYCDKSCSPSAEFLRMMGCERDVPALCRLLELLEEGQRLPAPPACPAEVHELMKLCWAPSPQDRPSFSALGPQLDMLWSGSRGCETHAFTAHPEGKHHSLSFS
Experimental: (§1) As a specific substrate, the phosphorylation level of GSK-3[…] at Ser-9 was also evaluated. […] The decrease was specific to the AKT phosphorylation site on GSK-3[…] at Ser-9, since a change in the phosphorylation level of GSK-3[…] at Tyr-216 or GSK-3[…] at Tyr-279 was not observed. Moreover, the in vivo reduction of the phosphorylation of AKT substrates was more obvious at the injection site, since a significant change in the phosphorylation of AKT substrates in the frontal cortex or cerebellum between the two hemispheres was not observed. […] To test the specificity/selectivity of ZaTa as the inhibitor of AKT1 versus the other major kinases, a series of in vitro kinase assays was performed at IC50 for AKT1 and at ten times higher concentrations. […]
(§2) Phosphorylation sites for kinases analyzed herein included Ser-235/236 S6 (a substrate for p70S6K), Tyr-207 CRKL (a substrate for Abl; Zipfel, et al. (2004) supra), Ser-241 PDK1 (a substrate for PI3K), Tyr-1022/1023 JAK1 (a substrate for JAK3; Wang, et al. (2003) supra), Ser-421 Huntingtin (a substrate for SGK; Rangone, et al. (2004) supra), Tyr-783 PLC (a substrate for TrkB; Middlemas, et al. (1994) supra), and Ser-338 cRaf (a substrate for PAK3; King, et al. (1998) supra).

SGK = biological target: T2, SGK (Homo sapiens, UniProt O00141); test: Cell-based kinase assay, phosphorylation of intracellular substrate (Ser-421 Huntingtin)
T2 construct: endogenous in cells
T2 sequence (O00141 1-431): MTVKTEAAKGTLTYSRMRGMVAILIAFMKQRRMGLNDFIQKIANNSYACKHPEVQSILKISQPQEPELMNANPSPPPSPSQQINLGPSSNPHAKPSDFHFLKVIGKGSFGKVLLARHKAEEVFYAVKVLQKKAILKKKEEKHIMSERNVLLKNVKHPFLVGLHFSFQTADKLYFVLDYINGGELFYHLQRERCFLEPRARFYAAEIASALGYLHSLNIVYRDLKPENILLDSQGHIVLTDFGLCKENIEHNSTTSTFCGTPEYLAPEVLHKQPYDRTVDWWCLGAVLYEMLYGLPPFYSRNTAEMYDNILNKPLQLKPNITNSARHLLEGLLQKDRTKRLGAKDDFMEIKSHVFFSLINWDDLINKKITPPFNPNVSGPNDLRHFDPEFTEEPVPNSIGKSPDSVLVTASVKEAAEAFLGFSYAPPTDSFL
Experimental: as §1, §2

What does the source list for “labeled ZaTa: ZaTa peptide labeled with a red fluorescent dye at its N-terminus ({red fluorescent dye}-AKRVKGRTWTLCGTPEY; reading uncertain)”?
inhibition of JAK3 in cells (JAK3): did not cause inhibition; inhibition of SGK in cells (SGK): did not cause inhibition
